Values of other authors as cited in patent US20240189387A1, “DOSING REGIMENS FOR HEMATOPOIETIC STEM CELL MOBILIZATION FOR STEM CELL TRANSPLANTS IN MULTIPLE MYELOMA PATIENTS” (Ensoma, Inc., priority 2021, published 2024).
Like-named read-outs stand apart in the source and are kept apart here.

Legend:
[1] = test system: neutrophil activation markers (L-selectin, CD11b, CD18, CD66); conditions: 5 days of G-CSF treatment, Falanga et al., Blood 1999; cited from earlier work
[2] = G-CSF; bone pain, headache, myalgia, and/or fatigue (up to 1+ week); Pulsiper et al. 2009; cited from earlier work
[3] = test system: graft cell subsets (T cells, B cells, NK cells); conditions: cited from earlier work
[4] = test system: CD90+CD45RA− among CD34+ cells; conditions: Goncalves ASTCT 2021; cited from earlier work
[5] = Chen et al., 2019, 2 LP plerixafor, 1 LP G-CSF
[6] = Devine et al, 2008, yield of 1 LP
[7] = G-CSF, Chaidos et al, Blood 2012

B1: G-CSF: Filgrastim (G-CSF), most common clinical hematopoietic stem cell mobilization protocol, five days (protein, chains of the INN, looked up)
chain: MTPLGPASSLPQSFLLKCLEQVRKIQGDGAALQEKLCATYKLCHPEELVLLGHSLGIPWAPLSSCPSQALQLAGCLSQLHSGLFLYQGLLQALEGISPELGPTLDTLQLDVADFATTIWQQMEELGMAPALQPTQGAMPAFASAFQRRAGGVLVASHLQSFLEVSYRVLRHLAQP
fold increase in neutrophil activation markers [1]: ~2.7 fold
tolerability [2]: Majority with bone pain,
graft CD34+ Median (range) ([3]; Chen et al., 2019, 2 LP for plerixafor (N = 50+), 1 LP for G-CSF (N = 112+)): 4.2e+06 kg⁻¹
graft CD3+ Median (range) [3, 5]: 2.5e+08 kg⁻¹
graft CD4+ Median (range) [3, 5]: 1.5e+08 kg⁻¹
graft CD8+ Median (range) [3, 5]: 7e+07 kg⁻¹
graft CD19+ Median (range) [3, 5]: 5e+07 kg⁻¹
graft CD56+ Median (range) [3, 5]: 1e+07 kg⁻¹
graft CD3+ Median (range) [3, 6]: 1.3 (1.2-6.8) ×10^8/kg
graft CD4+ Median (range) [3, 6]: 1.1 (0.7-3.2) ×10^8/kg
graft CD8+ Median (range) [3, 6]: 0.4 (0.3-3.4) ×10^8/kg
graft CD56+ Median (range) [3, 6]: 0.2 (0.1-0.5) ×10^8/kg
graft CD34+ Median (range) ([3]; Devine et al, 2008, yield of 1 LP, plerixafor N = 24, G-CSF N = 8): 4.2 (2.5-18.7) ×10^6/kg
TNC/kg donor weight Median (range) ([3]; G-CSF, 40 healthy donors, Singhal et al, BMT 2000): 7.2 (3.2-14.0) ×10^8 cells
frequency of CD3+ T cells in graft, Median ([3]; G-CSF, 78 healthy donors, Chaidos et al, Blood 2012): 45.3 % of CD45+
frequency of CD4+ T cells in graft, Median [3, 7]: 29.8 % of CD45+
frequency of CD8+ T cells in graft, Median [3, 7]: 11.8 % of CD45+
frequency of CD19+ B cells in graft, Median [3, 7]: 10.5 % of CD45+
frequency of CD56+ NK cells in graft, Median [3, 7]: 3.2 % of CD45+
frequency of Tregs in graft, Median [3, 7]: 3.5 % of CD4+ T cells
frequency of iNKT cells in graft, Median [3, 7]: 0.04 % of CD3+
CD90+CD45RA− among CD34+ cells with a regimen that includes G-CSF [4]: 6%
